Measurements from patent US20230242902A1, “A HIGHLY ERROR-PRONE […] R[…] FOR TARGETED CONTINUOUS EVOLUTION IN VIVO” (The Regents of the University of California, priority 2017, published 2023).
Changes are numbered by the printed parent chain. Numbers in names are those of the source.

B1: M779L, K934W (protein)
chain: MDYKDKALNDLRNVYADFDSLPLDFRQILIKDRATLLQKEDVEKKILERQEDAKKYAEYLKQSEIPERISLPNIKRHKGVSISFEETSEDMVLEPRPFIFDGLNIRCFRRETIFSLKNKILNMVKESSSFKNVSRQSVSFMYFKIFNKGKVIASTKSVNIYEDKIDERLEDLCNNFDDVLKKIIDVTYGYESLFVSETYSYVIFYAKSIYFPQPRCVNNWGNNIPNILTFDSFKLFTANKNNVSCIKQCSRFLWQKDFNTLEEMIEYKNGNICIVTPQLHINDVRDIKSFNDIRLYSESPIKTFSVIDNTITYLFYFKEHLGVIFNITKSRHDRRVTKFSPLSKFSDVKNITVCFDIESYFDPEKESNQVNIPFICCASIIYNKVIGNIVDFEGRDCVAQMIEYVVDICGELNISSVELIAHNGGGYDFHYILSSMYNPAAIKNILIRNNSFISFNFAHDGVKFSVKDSYSFLLCSLANASKAFLNEETFKKTDFPHHDLKTADDLYKVYKEWSSVNTEINHVVEKEKLLITSEHIVNFTKNDKSKTLIEWSKDYCRNDVLVLSKVWLEFKNAVEDIFNCELVDQTMTLAGLSYKLFQANMPFDVELRHPNKEDYFNMREALIGGRCISVNGIYKDVLCLDVKSLYPASMAFYDQPYGSFKRVSSRPKDELGIYYVRVTPNRNNKSNFFPIRSHNKITYNNFEESTYIAWYTNVDIDIGLSEGHNIEYIPFDSYGNIGYSWSKKGKIFEKYIKDVLYKLKIKYEKQNNKVKRNVIKIILNSLWGKFAQKWVNFEYFIKSEDDIDFESEEAYKIWDTDFMLIKKIKESTYSSKPIQNGVFTLSWARYHMKSIWDAGAKEGAECIYSDTDSIFVHKEHFKKNAKFMLNGLKVPIIGSEVGQLELECEFDKLLCAGKKQYMGFYTYFQDGKPCIKEWKRFKGIPSNYIIPELYAHLLSGADKEAKIQFLKFRREWGSVKGYIENKTVKAT
B2: V774I, L900S (protein)
chain: B1 chain with V774I, L779M, L900S, W934K
B3: V774I, F968C (protein)
chain: B1 chain with V774I, L779M, W934K, F968C
B4: M779L, F968C (protein)
chain: B1 chain with W934K, F968C
B5: V774I, F871Y (protein)
chain: B1 chain with V774I, L779M, F871Y, W934K
B6: L474A: TP-DNAP2 variant (protein)
chain: B1 chain with L474A, L779M, W934K
B7: L474D: TP-DNAP2 variant (protein)
chain: B1 chain with L474D, L779M, W934K
B8: S370P: TP-DNAP2 variant (protein, listed as Kluyveromyces lactis)
chain: MNDELAFLNSQIDDYSDDIEFLRTEVFRINRYSKSIYSLMKNSSKEAIKETIEFNKYGQEIHSKIKEKEISLIEAIKLMEKKYKYLRSLNKTKDKSKKKKIHTKDIETLKTIYKTKADFDIRNFKNAETFTYENYSLLIPSEKELIDLIPEIEEDYSYYFYVSLTITGPTIFGGVTRKVPIIDTYGDINKDFYNKIKENITKVLDRVPFYEEKESEIICKKVLITLTVNKWESIDKWYKNVKSKSKKFKDFTLFLASDTSKNCVQQCVEYLGGKWNTNYSLEKMIPQQKIVTYIPLLMDIQYVQSMEDLISDFDEPNTDCKNIARLLKWNGHMGVITKIDKDVKINRIQRKRIIDVENKEVKEVFFDIEPFSDETKHQIPYLICWSYLGELYYRTGKNCIKEFVEEILSYNVDIILYAWYGSGYDYQHVLPYMKSKCIKDKYIIKNNMITYGELYYENAIIYLKDPYLFILTSLDKASKAFNVINKGEFPHSIIHSWEDLNKILPNWVKIQKRMIEYKDDNKLNIYYKNIEIFENDRNYNTILENAIEYCKVDVLAMEKVWIKFKKLLEKNLNITVSVKTFTLSQLSMKIMESKLPKYVKLYVPTLEEYSKIRNAIYGGRVISKNGIYEENIVYADVVSLYPSAMKLLKHSYGKPKLVDYIDFEKHGIYRVTLLNKHDQEPKNYLNFVPRRINRKLTWEWFKIHEGWYHTYDLIIAKSEGFDIYCHEGFEYPEKDYIFNDFIDTLYSMKETHTACSCEEQPCPIRMVAKIALNGGGYGKFVQKPIDKEIYIVKRDVVAGECDKLQENENGEICIGKRLVKRPLFYNLDSENYDKMIIEKEDEPIYSTQCGISILSASRYRLYKLCKQFENIDIIYSDTDSIFVKQKSVDWELFKSKCGSELGQLDSTIDDTKNAIISKMYIGGAKMYAFEYLNNKNKLITKLHCKGVPNYMLSLNQFKYLMESPDNTIAYKFEIIRRKLVNVITKDLIKDIKQT
B9: S370K: TP-DNAP2 variant (protein, listed as Kluyveromyces lactis)
chain: B8 chain with P370K
B10: S370R: TP-DNAP2 variant (protein, listed as Kluyveromyces lactis)
chain: B8 chain with P370R
B11: S370E: TP-DNAP2 variant (protein, listed as Kluyveromyces lactis)
chain: B8 chain with P370E
B12: S370L: TP-DNAP2 variant (protein, listed as Kluyveromyces lactis)
chain: B8 chain with P370L

test system: p1-encoded leu2 (Q180*); test: Large-scale p1 fluctuation tests of p1-encoded leu2 (Q180*), per-base substitution rate; assay type: cell-based, S. cerevisiae; details: per-base substitution rate, p1-encoded leu2 (Q180*), large-scale fluctuation test
In short: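 Yeast OR-Y24 carrying p1-encoded leu2 (Q180*) with individual TP-DNAP1 variants; 36-48 replicates (3-16 for highly error-prone variants), LEU2 revertants scored without leucine. Rates by maximum likelihood, normalized to cells per culture, p1 copy number (flow cytometry) and 2.33 reversion routes.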

Question: With B1 as the molecule, how does the “Mutation rate (s.p.b.)” value read?
Answer: The value was 2.85 × 10^−9 s.p.b.

Question: Which “Mutation rate (s.p.b.)” value does the source give for B2 here?
Answer: Its value is 1.10 × 10^−7 s.p.b.

Question: Which “Mutation rate (s.p.b.)” value does the source give for B3 here?
Answer: Its value is 1.14 × 10^−7 s.p.b.

Question: B4 was tested. Which “Mutation rate (s.p.b.)” value did it give?
Answer: The value was 3.13 × 10^−10 s.p.b.

Question: Which “Mutation rate (s.p.b.)” value does the source give for B5 here?
Answer: Its value is 1.64 × 10^−7 s.p.b.

test system: p2-encoded leu2*; test: p2 leu2* fluctuation tests in GA-Y021 (p2 mutation rate reporter strain); assay type: cell-based, S. cerevisiae; details: TP-DNAP2 variant in trans, wt TP-DNAP2 in cis, 36 replicates, (95% C.I.)
Source text: For fluctuation tests used to measure p2 mutation rates, leu2* served as a marker for detecting mutational events. leu2* is a disabled version of LEU2, where Q180 is replaced with a TAA stop codon. Q180 is a permissive site where mutation to any other codon other than TAG and TGA results in functional reversion to LEU2. These mutational events can be detected by plating scores of parallel cultures on medium lacking leucine and counting the number distribution of functional LEU2 mutants.
For TP-DNAP2 library screening, each library member was subjected to small-scale leu2* fluctuation tests with six replicates. 190 library members from each yeast library transformation were arrayed and inoculated into liquid SC medium lacking uracil and histidine, and passaged three times at 1:10,000 dilutions. mKate2 fluorescence was measured at every passage on a microplate reader (TECAN Infinite® 200 PRO, settings: λex=588, λem=633) to track p2 copy number stabilization. To perform fluctuation tests, each library member was diluted 1:10,000 into liquid SC medium buffered to pH 5.8 and lacking uracil, histidine, tryptophan, and dilutions were split into six 100 μL replicates. Cultures were grown for 48 hours at 30° C. to reach saturation. Saturated cultures were washed with 200 μL 0.9% NaCl to remove residual leucine and resuspended in 35 μL of 0.9% NaCl. 10 μL of this resuspension was spot plated onto solid SC medium buffered to pH 5.8 and lacking uracil, histidine, tryptophan and leucine. Spot plates were allowed to dry and incubated at 30° C. Colonies were counted after 5 days. Colony counts were used to calculate the expected number of LEU2 functional mutants (m), using the p0 method (Foster, 2006, Methods Enzymol, 409:195-213).
To precisely measure p1 and p2 per-base substitution mutation rates, several modifications were made to the small-scale protocol. First, 36 replicates were performed for reconfirmation of candidate TP-DNAP2 mutators, and 48 replicates for genomic and mutual orthogonality experiments. Titers were also determined for each strain after spot plating by pooling the residual volume from 4 replicates and plating dilutions on YPD. The expected number of LEU2 functional mutants (m) was determined by the Ma-Sandri-Sarkar maximum likelihood estimator (as calculated by the FALCOR tool and corrected for partial plating (Foster, 2006, Methods Enzymol, 409:195-213; Sarkar et al., 1992, Genetica, 85:173-179; Hall et al., 2009, Bioinformatics, 25:1564-1565). The mean mKate2 fluorescence was determined from 50,000 event counts on Attune™ NxT Flow Cytometer and converted to p2 copy number by using a calibration curve. To determine per-base substitution rates, the corrected m was normalized to the average cell titer, the p2 copy number, and the target size for functional leu2* reversion (2.33 bp). 95% confidence intervals were similarly scaled.
To identify error-prone TP-DNAP2s, a small library of TP-DNAP2s diversified at locations hypothesized to be responsible for DNAP fidelity was screened. […] Four distinct site-saturation mutagenesis libraries were generated, each diversifying S370, Y424, L474, or F882 in TP-DNAP2 encoded on pGA55-reTP-DNAP2. Due to unsuccessful attempts to generate a strain with a full deletion of p2-encoded TP-DNAP2 and simultaneous integration of mKate, URA3, and leu2*, each library was transformed into GA-Y021 for convenient screening. However, since GA-Y021 still encodes wt TP-DNAP2 on p2-delORF1-mUL*, p2 mutation rates measured in this format are the result of in tandem replication of p2 by wt TP-DNAP2 and each TP-DNAP2 variant encoded in trans. 6-fold coverage of each library was maintained by picking 190 yeast colonies and passaging under selection for URA3 to stabilize the copy number of p2-delORF1-mUL* in the presence of the newly introduced TP-DNAP2 variants. […]

Question: For B6, which “Per-base substitution rate pf p2” value is on record?
Answer: Its value is 8.37 (4.80-12.6) ×10^−10.

Question: Which “Per-base substitution rate pf p2” value does the source give for B7 here?
Answer: The value was 12.2 (7.33-17.9) ×10^−10.

Question: With B8 as the molecule, how does the “Per-base substitution rate pf p2” value read?
Answer: The value was 50.1 (32.4-70.4) ×10^−10.

Question: How did the “Per-base substitution rate pf p2” value turn out when B9 was run?
Answer: Its value is 26.2 (18.0-35.4) ×10^−10.

Question: For B10, which “Per-base substitution rate pf p2” value is on record?
Answer: Its value is 31.9 (22.4-42.5) ×10^−10.

Question: For B11, which “Per-base substitution rate pf p2” value is on record?
Answer: Its value is 27.9 (19.7-37.2) ×10^−10.

Question: B12 was tested. Which “Per-base substitution rate pf p2” value did it give?
Answer: Its value is 14.8 (9.32-21.1) ×10^−10.

same assay, conditions: p2 substitution rate over no variant in trans

Question: B6 was tested. Which Fold increase did it give?
Answer: Its Fold increase is 1.4.

Question: How did the Fold increase turn out when B7 was run?
Answer: The Fold increase was 2.0.

Question: With B8 as the molecule, how does the Fold increase read?
Answer: Its Fold increase is 8.4.

Question: Which Fold increase does the source give for B9 here?
Answer: The Fold increase was 4.4.

Question: With B10 as the molecule, how does the Fold increase read?
Answer: Its Fold increase is 5.3.

Question: With B11 as the molecule, how does the Fold increase read?
Answer: Its Fold increase is 4.7.

Question: Which Fold increase does the source give for B12 here?
Answer: Its Fold increase is 2.5.
